According to publication doi:10.1101/2023.02.21.529347v1:

System: CC1(C)[C@H]2CC=C(C=O)[C@@H]1C2
Experiment: purified protein
Settings: co-substrate F420H2; apparent value; fit with substrate inhibition

Substance: MSMEG_2850 (Mycolicibacterium smegmatis MC2 155; Y124M)
- Km: 260 ± 20 µM
- kcat: 0.65 ± 0.018 s⁻¹
